Here are results for 45 variants from the Human Domainome abundance scans (Beltran et al. 2025).

B1: Spectrin alpha chain, erythrocytic 1, residues 979 to 1036; numbered along this chain, P02549 (parent)
chain: EQRVMALYDFQARSPREVTMKKGDVLTLLSSINKDWWKVEAADHQGIVPAVYVRRLAH

± gives the uncertainty stated by the source.

Variants of B1 are the subject of the data set. Description: abundance fitness (aPCA) (normalised: wild type 0, dead -1); higher = more abundant; growth selection in yeast, the domain comes from the species named. As to conditions: Homo sapiens.
With EQRVMALYDFQARSPREVTMKKGDVLTLLSSINKDWWKVEAADHQGIVPAVWVRRLAH [Y52W], the abundance fitness is -0.978 ± 0.41.

For EQRVMALYDFQARSPREVTMKKGDVLTLLSSINKDWWKVEAADHQGIVPAVKVRRLAH [Y52K], the abundance fitness is -0.528 ± 0.22.

Turning to EQRVMALYDFQARSPREVTMKKGDVLTLLSSINKDWWKVEAADHQGIVPAVGVRRLAH [Y52G], the abundance fitness was -0.659 ± 0.29.

Turning to EQRVMALYDFQARSPREVTMKKGDVLTLLSSINKDWWKVEAADHQGIVPAVLVRRLAH [Y52L], the abundance fitness is -0.284 ± 0.16.

In the case of EQRVMALYDFQARSPREVTMKKGDVLTLLSSINKDWWKVEAADHQGIVPAVRVRRLAH [Y52R], the abundance fitness was -0.53 ± 0.22.

In the case of EQRVMALYDFQARSPREVTMKKGDVLTLLSSINKDWWKVEAADHQGIVPAVEVRRLAH [Y52E], the abundance fitness is -0.165 ± 0.23.

For the variant EQRVMALYDFQARSPREVTMKKGDVLTLLSSINKDWWKVEAADHQGIVPAVHVRRLAH [Y52H], the abundance fitness was -0.368 ± 0.45.

As for EQRVMALYDFQARSPREVTMKKGDVLTLLSSINKDWWKVEAADHQGIVPAVFVRRLAH [Y52F], the abundance fitness is -0.367 ± 0.16.

Turning to EQRVMALYDFQARSPREVTMKKGDVLTLLSSINKDWWKVEAADHQGIVPAVAVRRLAH [Y52A], the abundance fitness was found to be 0.089 ± 0.13.

As to EQRVMALYDFQARSPREVTMKKGDVLTLLSSINKDWWKVEAADHQGIVPAVSVRRLAH [Y52S], the abundance fitness amounted to 0.155 ± 0.082.

As for EQRVMALYDFQARSPREVTMKKGDVLTLLSSINKDWWKVEAADHQGIVPAVTVRRLAH [Y52T], the abundance fitness is -0.678 ± 0.17.

For EQRVMALYDFQARSPREVTMKKGDVLTLLSSINKDWWKVEAADHQGIVPAVVVRRLAH [Y52V], the abundance fitness is -0.682 ± 0.19.

In the case of EQRVMALYDFQARSPREVTMKKGDVLTLLSSINKDWWKVEAADHQGIVPAVMVRRLAH [Y52M], the abundance fitness is -0.045 ± 0.11.

For EQRVMALYDFQARSPREVTMKKGDVLTLLSSINKDWWKVEAADHQGIVPAVPVRRLAH [Y52P], the abundance fitness was -0.075 ± 0.26.

For the variant EQRVMALYDFQARSPREVTMKKGDVLTLLSSINKDWWKVEAADHQGWVPAVYVRRLAH [I47W], the abundance fitness is 0.461 ± 0.15.

With EQRVMALYDFQARSPREVTMKKGDVLTLLSSINKDWWKVEAADHQGVVPAVYVRRLAH [I47V], the abundance fitness is 0.228 ± 0.16.

For EQRVMALYDFQARSPREVTMKKGDVLTLLSSINKDWWKVEAADHQGSVPAVYVRRLAH [I47S], the abundance fitness is -0.659 ± 0.23.

Turning to EQRVMALYDFQARSPREVTMKKGDVLTLLSSINKDWWKVEAADHQGCVPAVYVRRLAH [I47C], the abundance fitness was -0.226 ± 0.41.

As for EQRVMALYDFQARSPREVTMKKGDVLTLLSSINKDWWKVEAADHQGLVPAVYVRRLAH [I47L], the abundance fitness was found to be 0.065 ± 0.13.

EQRVMALYDFQARSPREVTMKKGDVLTLLSSINKDWWKVEAADHQGYVPAVYVRRLAH [I47Y]: the abundance fitness was 0.304 ± 0.23.

For the variant EQRVMALYDFQARSPREVTMKKGDVLTLLSSINKDWWKVEAADHQGFVPAVYVRRLAH [I47F], the abundance fitness worked out at 0.349 ± 0.21.

Take EQRVMALYDFQARSPREVTMKKGDVLTLLSSINKDWWKVEAADHQGAVPAVYVRRLAH [I47A]: the abundance fitness was -0.532 ± 0.32.

As to EQRVMALYDFQARSPREVTMKKGDVLTLLSSINKDWWKVEAADHQGEVPAVYVRRLAH [I47E], the abundance fitness is -0.727 ± 0.43.

Turning to EQRVMALYDFQARSPREVTMKKGDVLTLLSSINKDWWKVEAADHQGNVPAVYVRRLAH [I47N], the abundance fitness is -0.25 ± 0.18.

For EQRVMALYDFQARSPREVTMKKGDVLTLLSSINKDWWKVEAADHQGTVPAVYVRRLAH [I47T], the abundance fitness was -0.701 ± 0.42.

EQRVMALYDFQARSPREVTMKKGDVLTLLSSINKDWWKVEAADHQGMVPAVYVRRLAH [I47M]: the abundance fitness turned out to be 0.561 ± 0.11.

For the variant EQRVMALYDFQARSPREVTMKKGDVLTLLSSINKDWWKVEAADHQGILPAVYVRRLAH [V48L], the abundance fitness is -0.717 ± 0.19.

Consider EQRVMALYDFQARSPREVTMKKGDVLTLLSSINKDWWKVEAADHQGIWPAVYVRRLAH [V48W], for which the abundance fitness was -0.809 ± 0.29.

For EQRVMALYDFQARSPREVTMKKGDVLTLLSSINKDWWKVEAADHQGIRPAVYVRRLAH [V48R], the abundance fitness was -0.551 ± 0.19.

In the case of EQRVMALYDFQARSPREVTMKKGDVLTLLSSINKDWWKVEAADHQGIGPAVYVRRLAH [V48G], the abundance fitness is -1.09 ± 0.33.

On to EQRVMALYDFQARSPREVTMKKGDVLTLLSSINKDWWKVEAADHQGIQPAVYVRRLAH [V48Q], for which the abundance fitness was -0.656 ± 0.12.

In the case of EQRVMALYDFQARSPREVTMKKGDVLTLLSSINKDWWKVEAADHQGIAPAVYVRRLAH [V48A], the abundance fitness was -0.687 ± 0.17.

EQRVMALYDFQARSPREVTMKKGDVLTLLSSINKDWWKVEAADHQGITPAVYVRRLAH [V48T]: the abundance fitness was -0.727 ± 0.17.

As for EQRVMALYDFQARSPREVTMKKGDVLTLLSSINKDWWKVEAADHQGIKPAVYVRRLAH [V48K], the abundance fitness was -0.56 ± 0.11.

As to EQRVMALYDFQARSPREVTMKKGDVLTLLSSINKDWWKVEAADHQGIMPAVYVRRLAH [V48M], the abundance fitness is -0.556 ± 0.36.

Regarding EQRVMALYDFQARSPREVTMKKGDVLTLLSSINKDWWKVEAADHQGICPAVYVRRLAH [V48C], the abundance fitness was -0.502 ± 0.29.

As for EQRVMALYDFQARSPREVTMKKGDVLTLLSSINKDWWKVEAADHQGIVPAVYARRLAH [V53A], the abundance fitness was -0.766 ± 0.25.

On to EQRVMALYDFQARSPREVTMKKGDVLTLLSSINKDWWKVEAADHQGIVPAVYWRRLAH [V53W], for which the abundance fitness is -0.634 ± 0.43.

In the case of EQRVMALYDFQARSPREVTMKKGDVLTLLSSINKDWWKVEAADHQGIVPAVYPRRLAH [V53P], the abundance fitness is -0.579 ± 0.42.

In the case of EQRVMALYDFQARSPREVTMKKGDVLTLLSSINKDWWKVEAADHQGIVPAVYLRRLAH [V53L], the abundance fitness was 0.13 ± 0.1.

Turning to EQRVMALYDFQARSPREVTMKKGDVLTLLSSINKDWWKVEAADHQGIVPAVYTRRLAH [V53T], the abundance fitness is -0.872 ± 0.33.

Consider EQRVMALYDFQARSPREVTMKKGDVLTLLSSINKDWWKVEAADHQGIVPAVYCRRLAH [V53C], for which the abundance fitness came out at 0.039 ± 0.11.

As for EQRVMALYDFQARSPREVTMKKGDVLTLLSSINKDWWKVEAADHQGIVPAVYSRRLAH [V53S], the abundance fitness was -0.819 ± 0.26.

For the variant EQRVMALYDFQARSPREVTMKKGDVLTLLSSINKDWWKVEAADHQGIVPSVYVRRLAH [A50S], the abundance fitness turned out to be 0.011 ± 0.087.

Regarding EQRVMALYDFQARSPREVTMKKGDVLTLLSSINKDWWKVEAADHQGIVPVVYVRRLAH [A50V], the abundance fitness was -0.79 ± 0.29.
